Measured values: the DeepSol protein solubility set

Experiment: soluble on expression in E. coli; label from the status in PepcDB or PDB records

Sequence	soluble on expression in E. coli
MRVVVCGGGVIGACAAYFLRRRGIDVTVVERTEVAAAASGKAGGFLARDWCTGTPLDALARRSFALHAQLPEDISGDWGYRPMTAYSGFVASDGDARRDAPSALGWLSDGVVIAQRIGTAETTAIVHPRKFTSAVMNAALAQGAELRPGRVTGITRGTDGMTAGGVEIDGDLVEADAVVIAMGPWSLLAAQWMSLPPVYGQRSPSIVYDTAADAPAEALFLESEEDGSAVSIEVFPRADGSTHITALSDIAPLPLDPAAVTPDRDAIARLQTVSERLSPLFRPERIIAQQACFRPVTQDGLPLIGKVPRSDGLYVATGHNVWGILNAPATGEALAELIAEGATREIDLSPFDPARLTPLDPSLLQARLEHHHHHH	not soluble
MDRFELLGPLPREGTTTVLEASAGTGKTFALAGLVTRYLAETAATLDEMLLITFNRAASRELRERVRGQIVEAVGALQGDAPPSGELVEHLLRGSDAERAQKRSRLRDALANFDAATIATTHEFCGSVLKSLGVAGDNAADVELKESLTDLVTEIVDDRYLANFGRQETDPELTYAEALALALAVVDDPCAQLRPPDPEPGSKAAVRLRFAAEVLEELERRKGRLRAQGFNDLLIRLATALEAADSPARDRMRERWRIVLVDEFQDTDPMQWRVLERAFSRHSALILIGDPKQAIYGFRGGDIHTYLKAAGTADARYTLGVNWRSDRALVESLQTVLRDATLGHADIVVRGTDAHHAGHRLASAPRPAPFRLRVVKRHTLGYDGTAHVPIEALRRHIPDDLAADVAALLASGATFAGRPVVAADIAVIVEHHKDARACRNALAEAGIPAIYTGDTDVFASQAAKDWLCLLEAFDAPQRSGLVRAAACTMFFGETAESLAAEGDALTDRVAGTLREWADHARHRGVAAVFQAAQLAGMGRRVLSQRGGERDLTDLAHIAQLLHEAAHRERLGLPGLRDWLRRQAKAGAGPPEHNRRLDSDAAAVQIMTVFVAKGLQFPIVYLPFAFNRNVRSDDILLYHDDGTRCLYIGGKDGGAQRRTVEGLNRVEAAHDNLRLTYVALTRAQSQVVAWWAPTFDEVNGGLSRLLRGRRPGQSQVPDRCTPRVTDEQAWAVFAQWEAAGGPSVEESVIGARSSLEKPVPVPGFEVRHFHRRIDTTWRRTSYSDLVRGSEAVTVTSEPAAGGRADEVEIAVVAAPGSGADLTSPLAALPSGASFGSLVHAVLETADPAAPDLAAELEAQVRRHAPWWTVDVDHAQLAPELARALLPMHDTPLGPAAAALTLRQIGVRDRLRELDFEMPLAGGDLRGRSPDVSLADVGELLASHLPGDDPLSPYADRLGSAGLGDQPLRGYLAGSIDVVLRLPGQRYLVVDYKTNHLGDTAADYGFERLTEAMLHSDYPLQALLYVVVLHRFLRWRQRDYAPARHLGGVLYLFVRGMCGAATPVTAGHPAGVFTWNPPTALVVALSDLLDRGRLQS	soluble
MSLIEIESRELADIPVLHAYPVGQKDTPLPCVIFYHGFTSSSLVYSYFAVALAQAGLRVIMPDAPDHGSRFSGDAARRLNQFWQILLQSMQEFTTLRAAIAEENWLLDDRLAVGGASMGAMTALGITARHPTVRCTASMMGSGYFTSLARSLFPPLIPETAAQQNEFNNIVAPLAEWEATNHLEQLSDRPLLLWHGLDDDVVPADESLRLQQALSETGRDKLLTCSWQPGVRHRITPEALDAAVTFFRQHLEGGSHHHHHH	soluble
MAHHHHHHMRAVQLVQGRARMCCVPFLFWVCPPPHLFSLSLPTPSLRSCGARTSCVAERSHASRRGGCGLPSPLPAQPTSPPDTRTGDTCICAFSFTPDEVSQTMTDRCYRTLGLDRGAAEADIKRAYRRKALLFHPDRNPNGAEAFKALQGDYEEALTDARRRGARGGGVPPFSSMASPSWDPAAPAAGAAYRFARAAGTACPPFFPEPSPAPLFTDEELFADSIPGGWRDVCARRGASARGGDKAGGRNNAAGRTEEINGSNSCCSQEAAAADARWRRAHGARVPVSAYTFSGPVPPPPPLPSQPSPHLSSSSFTSFCTHTRARASVAGTGSRLSTQAQRNRFVSRECMWKSSSAEALSLDAKQEAGGAGKVGRSRGCDGYTGQNREPVCGSDTGESAEDRVYREAVLLQRRMPALSGKSRGAAAERTRTHSQSDRAFSTEGVPVGSNATFPATRGVYHQRSDLHTSSTTTTTTTSSSTKGERLEAALSQREALCRQCRDTETTLQHEVDDDHAPAFSDDGDASAHPDKGDGAGSTNAALGPSAAGPLAASGRDTSRAGDPFPVKQSACPESNSDDRLRGDLPHRDRIPDECPLLQSENPRGRYTPNPAEVAEMSDMEVYLLASVAEDINQKTQTVMTARLSKEPYSCSASTPRAHQHVYFTCTHPSACEDCYASGVSKCPLCGASGVDRSSPPPSATTTSSSIEKGGTTGASGACTGTRASLASSSAPSPETMYEPVRVHSVLTCGDADA	not soluble
MGSDKIHHHHHHMNVLITGMNGTVAPVLADVFRSHHYDITAWDRSVVSTTDSAVMEAFIDRVQPDLLLHIGMGPAEFAETLARLSFERNIPFLFTSTASVYSDEQKGPHDPAIVPAATDEYGAYKRTCERLIQAVNPDAYIVRIGWQIGQAAGSNNMIDYLERHAIAGPIPASTQWYPSCAFLEDTAQTLYTIVTTYTPGLYLANGNASHSFFDIVTALNILHGSKWHITEDNSMTRDDRMTDSRVVIRPISEHLSFVH	not soluble
MGSDKIHHHHHHMTQYIYLHGFASSPQSAKAQDIRQRFAQIHTQLTIPDLNAGEFSQLTITRQIQQIAATFPDDSVPITLIGSSLGGLTAAHLGQRYLQVQRLVLLAPAFGFLSHWLPKMGEGAVQSWQQNGYYPVYHYGEGTSLPLSYNFVTDAAQYQEDHIQRPIPTLILHGKHDEVIPITASRDFAHSRPWVELIELDSNHALGNVMEEIWQAISLFCQLPESGKI	not soluble
MGSDKIHHHHHHLKALVVGLGSIGVRHLNNLHALEVRELGVVRSRNFPPPTEIVPKDIAVFQDIDLALSRKFDLVVVANPTSLHLETLIKALRAGSHVYVEKPVAHEKRRLSELTRYVSLDGPRVLVGCQFRMHPGLRKIEGWIRQGKLGKIHSVQVDLGEYLPGWHPWEDYRQSYAARADQGGGVVLTLIHELDYLHWLFGKPKSVFAIGGHRTSLDITAEDTALITFETEQDICVQLRMDYWRKPPVRHMNIVAENAIVDWDYPTRLTTLRQNGQVLDEMVLVPSWDRNELFLSMMKEFIEGIPRGSIPRVTLRDGIEVLKTALAVKKSLQTHRKVAL	not soluble
PHIDIKCFPRELDEQQKAALAADITDVIIRHLNSKDSSISIALQQIQPESWQAIWDAEIAPQMEALIKKPGYSMNA	soluble
SLEGQLEAGEPKEGTHPEDPCPGAGAAMEKTPAAAEVPREDGNAEEMPSLQQQITSLHQELGRQQSLWADIHRKLQSHMDALRKQNRELREELRGLQRQQWEAGKKPAASPHAGRESHTLALEPAFGKISPLSADEETTPKYAGRKSQSATLLGQRWSSNHLAPPKPMSLKTERINSGKTPPQEDREKSPPGRRQDRSPAPTGRPTPGAERREVSEDGKIMHPSSRSPQNSGGRKSPVQASQATTLQEQTAAARGADRSSSVLGSSEGGFLSRVQADEFASSSPDSAERQNLPVNPPSSLEIAQAMDTKMKKEEVQEEKRHPKGKADDCRRSGFPSEFPGALHAAPSRQDMGP	soluble
MEVSHVTLEPNKDSRPAVLTIGKFDGVHLGHQTILNTALSIKKENEILTAISFSPHPLWALKQIEIYREMLTPRMEKERWLAHYGVDHLIETAFTPRYAETTPEEFVTDHLSNLQLSHIIVGSEFNFGKGRDSDVDLLRDLCKPYGIGVTSVPVIETNQTKISSTNIRAFIRRGHFLEAEQLLGHP	not soluble
MGSDKIHHHHHHMTPAQLKDELIAYSKTIGIDKIGFASADPFLTLKERLQTQQALGYQSGFEEPDIDKRVYPEKILPKARSIISIALAYPSKMKNPPKSKKGERRGVFCRASWGKDYHDILRDRLKKLEDFLLERVPDMKVLSMVDTGALSDRAVAERAGIGWSGKNCGVITPEFGSYVYLGDLVTTIPFPPDIPLTDQCGTCNKCVDACPTGALIQGGQLDSQKCIAFLTQTKGFLPEKYRKKLGNRLYGCDTCQQVCPANKGKNFHFHEEMEPDPEIAKPKLIPLLTMSNREFKEKFGHVSGSWRGKKPIQRNAILALAHFKEEAALPILADLLRQDPRPVIRGTAGWALGKIGGPEVETWLKDALKREKDEDVRAEISRGLEILAYGDSGNGKETEDSIR	not soluble
MKSVKNSWNSSIKDGEYQRKESQFRNWITTDGSAGITGRGGFQAEAGRYHLYVSLACPWAHRTLIFRQLKGLEDLITVSVVHPDMHENGWSFKHDEESAKLYGTTGDNLYDGKFISEKYLAQDPDYSGVNSVPVLWDKKDKVIVNNESSEIIRMFNSAFNDITGNTLDFYPEHLREKIDHENELVYHKINNGVYKTGFATTQEAYDKNVNELFAALEQIDEKLSKQRYLTGDEITEADWRLWATLVRFDSVYHTHFKCNLKLIKEFSNIYNYMLELFQVPNVAKTVNEAHIKRHYYASHVAINPYGIVPIAHQQDWTAQHNRDKQFS	not soluble
MSLQPVPDAGPWGDYLCDSPWALINSSIYAMKEIEPEPDFILWTGDDTPHVPDEKLGEAAVLEIVERLTKLIREVFPDTKVYAALGNHDFHPKNQFPAGSNNIYNQIAELWKPWLSNESIALFKKGAFYCEKLPGPSGAGRIVVLNTNLYYTSNALTADMADPGQQFQWLEDVLTDASKAGDMVYIVGHVPPGFFEKTQNKAWFREGFNEKYLKVVRKHHRVIAGQFFGHHHTDSFRMLYDDAGVPISAMFITPGVTPWKTTLPGVVNGANNPAIRVFEYDRATLSLKDMVTYFMNLSQANAQGTPRWELEYQLTEAYGVPDASAHSMHTVLDRIAGDQSTLQRYYVYNSVSEGHHHHHH	soluble
MDNNEKEKSKSELLVVTGLSGAGKSLVIQCLEDMGYFCVDNLPPVLLPKFVELMEQGNPSLRKVAIAIDLRGKELFNSLVAVVDKVKSESDVIIDVMFLEASTEKLISRYKETRRAHPLMEQGKRSLINAINDEREHLSQIRSIANFVIDTTKLSPKELKERIRRYYEDEEFETFTINVTSFGFKHGIQMDADLVFDVRFLPNPYYVVDLRPLTGLDKDVYNYVMKWKETEIFFEKLTDLLDFMIPGYKKEGKSQLVIAIGCTGGQHRSVALAERLGNYLNEVFEYNVYVHHRDAHIESGEKK	not soluble
MLIAITGTPGVGKTTVAKLLAKKLNYEYVSLKDFALEKGCGRRVNDEVEVEIDELAYFIERELKGKNAVLDGHLSHLMPVDLVVVLRAHPKLIGERLRERGYDREKIGENVEAELVDAVLIEAIEEHENVIEVDTTNKSPEDVVEEIVSLINSGIKKRVGIVDWSEVYDEIIPYLRLGGELEHHHHHH	soluble
MGSDKIHHHHHHMVPARHCHVAVFDQAIVALDIRRSRYFLYDAACARDFADHYLDFKPIDAPRALKPLIADRILVAESPAAARSRIADYRGWSFDAFDSGIWGSRVLGKRDAARFEWLPFWRIVRSAASLKMRGFHALAALDQLDARGAPARGDDASHTVERLLRASIWSPFRITCVQMSLALATHLRRQNVPAQLVIGVRPMPFVAHAWVEVDGRVCGDEPDLKKSYGEIYRTPRCDASAAPFGLAA	not soluble
